Source: patent US9120851B2, “Human antibodies to human angiopoietin-like protein 4” (Regeneron Pharmaceuticals, Inc., priority 2009, dated 2015)
Substitutions are numbered along the chain they refer to.

T1: hANGPTL4 peptide (R34-L66 of SEQ ID NO:476) (Homo sapiens, UniProt Q9BY76)
T1 sequence (Q9BY76 34-66 limits assumed): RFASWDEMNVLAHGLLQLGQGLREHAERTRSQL

B1: H1H284P: anti-hANGPTL4 antibody, hIgG1 isotype, HCVR/LCVR SEQ ID NOs 90/92 (antibody, V domains shown)
VH: QVQLVESGGGVVQPGRSLRLSCAASGFTFSSYGMHWVRQAPGKGLEWMAVISFDGGNKNNADSVKGRFTISRDNSKNTLYLQMNSLRAEDTAVYYCAKEGDRSGHPYFYYYGLDVWGQGTTVTVS
VL: DIQLTQSPSFLSASVGDRVTITCWASQGISSYLAWYQQKPGKAPKLLIYAASTLQSGVPSRFSGSGSETEFTLTISSLQPEDFATYYCQQLHSYPLTFGGGTKVEIK
B2: H1H268P: anti-hANGPTL4 antibody, hIgG1 isotype, HCVR/LCVR SEQ ID NOs 42/44 (antibody, V domains shown)
VH: QVQLQESGAGLLKPSETLSLTCTVYGGSFSIHHWTWIRHPPGKGLEWIGEINHRGSTNYNPSLKSRVTISIDTSKNQFSLKLSAVTAADTAVYYCARGLRFLDWLSSYFDYWGQGTLVTVSS
VL: DIQMTQSPSSLSASVGDRVTITCRASQGISDYLAWYQQKPGKVPNLLIYAASALQSGVPSRFSGSGSGTDFTLTISSLQPEDVATYYCQNYNTAPLTFGGGTKVEIK
B3: H4H268P2: IgG4 version of H1H268P with a single amino acid substitution in framework region 1, HCVR/LCVR SEQ ID NOs 487/44 (antibody, V domains shown)
VH: B2 VH with E6Q
VL: B2 VL
modifications: IgG4 constant region

How the values were obtained:
hANGPTL5-His = target: T2, hANGPTL5-His (Homo sapiens, UniProt Q86XS5); assay: BIACORE cross-reactivity, amine coupled hANGPTL5-His; assay type: binding; settings: for Specific RU, hANGPTL5-His: chip surface 5265 RU, mAb injected at 3.125-50 μg/mL
T2 construct: His; purchased Abnova Corp. H00253935-P01
Experimental: Possible cross-reactivity of the anti-hANGPTL4 antibodies to related proteins, i.e., hANGPTL3, human angiopoietin-like protein 5 (hANGPTL5) and mouse ANGPTL4 (mANGPTL4), was tested for the selected antibodies, i.e., H1H268P and H1H284P, using the BIACORE™ system. Briefly, anti-hANGPTL4 antibodies as well as negative controls, i.e., two monoclonal antibodies (Control a and Control b) that are non-binders to any ANGPTL proteins, were injected at 3.125 μg/mL-50 μg/mL over amine coupled chip surfaces of hANGPTL3-His (R&D Systems, cat #3829-AN) at 5228 RU, hANGPTL4-His (R&D Systems, cat #4487-AN) at 6247 RU, hANGPTL5-His (Abnova Corp., cat #H00253935-P01) at 5265 RU, and mANGPTL4-His [R26-S410 of mANGPTL4 (SEQ ID NO: 478) fused with an AS linker to a C-terminal 6-histidine tag] at 5233 RU, respectively. A polyclonal antibody specific for hANGPTL3 (R&D System, cat #BAF3485) was also tested.

humanized ANGPTL4 mice = assay: Serum TG levels in humanized ANGPTL4 mice; assay type: in vivo, mouse; settings: for Serum TG: mean±SEM
Experimental: The effect of anti-hANGPTL4 antibodies H1H268P and H1H284P on serum TG levels was determined in mice expressing the ANGPTL4 protein containing the human N-terminal coil-coil region (“humanized ANGPTL4 mice”). The humanized ANGPTL4 mouse was made by replacing first three exons of the mouse Angptl4 gene (the N terminal coil-coil region) with the corresponding human N-terminal coil-coil ANGPLT4 sequence in C57BL6/129 (F1H4) embryonic stem cells. After germ line transmission was established, heterozygous mice (ANGPTL4hum/+) were bred together to generate homozygous mice [ANGPTL4hum/hum or hANGPTL4(+/+)] on a C57BL6 background. Humanized ANGPTL4 mice were pre-bled 7 days before (day −7) the experiment and put into groups of six mice each for each antibody tested. Antibodies (H1H268P, H1H284P and isotype-matched (hIgG1) control with no known cross-reactivity to mouse antigens) were administered at 10 mg/kg dose by subcutaneous injection. Mice were bled after 4 hours of fasting at days 1, 4, 7 and 11 after antibody injection; and serum TG levels were determined by ADVIA® 1800 Chemistry System (Siemens). Average TG levels were calculated for each time point for each antibody.
The effect of anti-hANGPTL4 antibodies, H4H268P2 and H4H284P, on serum TG levels was determined in humanized ANGPTL4 mice. Humanized ANGPTL4 mice were pre-bled 7 days before the experiment and put into groups of six mice each for each antibody tested. Antibodies (H4H268P2, H4H284P and isotype-matched (hIgG4) control with no known cross-reactivity to mouse antigens) were administered at 10 mg/kg dose by subcutaneous injection. Mice were bled after 4 hours of fasting at days 1, 4, 7 and 11 after antibody injection; and TG levels were determined in the serum by ADVIA® 1800 Chemistry System (Siemens). Average TG levels were calculated for each time point for each antibody.

[1] = target: T1, hANGPTL4 peptide (R34-L66 of SEQ ID NO:476); assay: BIACORE, hANGPTL4 peptides injected over captured antibody; assay type: binding; settings: for ka: 62.5 nM-500 nM
Experimental: Further, the binding affinities of H1H268P and H1H284P for various ANGPTL3 and ANGPTL4 peptides were also determined by BIACORE™ system. Briefly, H1H268P (1348±11 RU) and H1H284P (868±13 RU) were captured over anti-human Fc surface and various concentrations (62.5 nM-500 nM) of the hANGPTL3 and hANGPTL4 peptides were injected. The peptides tested were hANGPTL4 (R34-L66 of SEQ ID NO:476), N-terminally biotinylated hANGPTL4 (R34-L66 of SEQ ID NO:476), hANGPTL3 (R36-I68 of SEQ ID NO:485), and N-terminally biotinylated hANGPTL3 (R36-I68 of SEQ ID NO:485). Kinetic analysis was performed to measure ka and kd, and KD values and half-life of antigen/antibody complex dissociation were calculated. NB: No binding under the experimental conditions described.

MfANGPTL4(1-130)-His = assay: BIACORE, full mAb or Fab over amino-coupled MfANGPTL4(1-130)-His; assay type: binding, cynomolgus monkey; settings: for Response bound at 50 nM mAb or Fab: amino-coupled 1,028 RU
Experimental: Briefly, various concentrations (3.125 nM-100 nM) of anti-hANGPTL4 antibodies (i.e., H1H268 Fab, entire H1H268 mAb, H1H284 Fab, and entire H1H284 mAb) were injected over a low density anti-mFc captured hANGPTL4(26-148)-mFc (˜68±4 RU) surface, or the surface of amino-coupled hANGPTL4(26-406)-His (R&D Systems) (450 RU) or amino-coupled cynomolgus monkey N-terminal region (amino acid residues 1-130 of SEQ ID NO:490) expressed with an C-terminal hexa-histidine tag (MfANGPTL4(1-130)-His) (1,028 RU). Kinetic analysis was performed to measure ka and kd, and KD values and half-life of antigen/antibody complex dissociation were calculated. The results are shown in Table 4 (H1H268P) and Table 5 (H1H284P).

[2] = day 1 after injection, 10 mg/kg s.c., 4 h fasting
[3] = day 4 after injection, 10 mg/kg s.c., 4 h fasting
[4] = day 7 after injection, 10 mg/kg s.c., 4 h fasting
[5] = day 11 after injection, 10 mg/kg s.c., 4 h fasting
[6] = hANGPTL4 peptide (not biotinylated)

T2 sequence (Q86XS5 26-388): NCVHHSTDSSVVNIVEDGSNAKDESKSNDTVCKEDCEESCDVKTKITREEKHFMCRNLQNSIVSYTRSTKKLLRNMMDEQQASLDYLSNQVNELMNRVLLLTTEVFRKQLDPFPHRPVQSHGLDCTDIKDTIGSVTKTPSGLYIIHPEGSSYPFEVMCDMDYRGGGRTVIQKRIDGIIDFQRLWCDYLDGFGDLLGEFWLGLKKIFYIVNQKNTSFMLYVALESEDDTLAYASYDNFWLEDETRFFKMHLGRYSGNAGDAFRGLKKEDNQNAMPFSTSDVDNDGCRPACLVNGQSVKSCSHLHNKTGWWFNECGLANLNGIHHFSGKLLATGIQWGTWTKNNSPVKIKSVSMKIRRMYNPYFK
Sequence of MfANGPTL4(1-130)-His (as listed by the source): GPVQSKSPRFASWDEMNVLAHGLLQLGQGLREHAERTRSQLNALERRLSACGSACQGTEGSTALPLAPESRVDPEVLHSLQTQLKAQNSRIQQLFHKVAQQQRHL

Row | Molecule | binding to hANGPTL5-His (other related ANGPTL protein), in words (hANGPTL5-His) | Specific RU, hANGPTL5-His (hANGPTL5-His) | Serum TG (humanized ANGPTL4 mice; [2]) | Serum TG (humanized ANGPTL4 mice; [3]) | Serum TG (humanized ANGPTL4 mice; [4]) | Serum TG (humanized ANGPTL4 mice; [5]) | Serum TG (humanized ANGPTL4 mice; day −7 (pre-bleed)) | ka (MfANGPTL4(1-130)-His; pH 5.75, 25° C.) | kd (MfANGPTL4(1-130)-His; pH 5.75, 25° C.) | Response bound at 50 nM mAb or Fab (MfANGPTL4(1-130)-His; pH 5.75, 25° C.) | ka (MfANGPTL4(1-130)-His; pH 7.2, 25° C.) | kd (MfANGPTL4(1-130)-His; pH 7.2, 25° C.) | Response bound at 50 nM mAb or Fab (MfANGPTL4(1-130)-His; pH 7.2, 25° C.) | other results
1 | B1 | did not bind | −13 RU | 125 ± 18 mg/dL | 67 ± 9.8 mg/dL | 91 ± 7.2 mg/dL | 109 ± 11 mg/dL | 113 ± 11 mg/dL | 1.55e+06 M⁻¹ s⁻¹ | 8.42e-05 s⁻¹ | 804 | 467000 M⁻¹ s⁻¹ | 5.83e-05 s⁻¹ | 414 | TG levels relative to control, in words (humanized ANGPTL4 mice; day 11 after injection, 10 mg/kg s.c.): increased back to control level; binding to the hANGPTL4 peptides, in words ([1]; both peptides, highest peptide concentration tested 500 nM): did not bind
2 | B2 | did not bind | −16 RU | 129.8 ± 5.6 mg/dL | 73.3 ± 8.9 mg/dL | 83 ± 14 mg/dL |  | 112 ± 9.3 mg/dL | 107000 M⁻¹ s⁻¹ | 8.24e-05 s⁻¹ | 583 | 392000 M⁻¹ s⁻¹ | 4.76e-05 s⁻¹ | 279 | reduction in circulating TG compared to isotype-matched control antibody (humanized ANGPTL4 mice; 4-11 days after administration, 10 mg/kg s.c.): 25-30%; kd ([1]; hANGPTL4-Nterm biotin peptide): 0.000294 s⁻¹; ka ([1]; hANGPTL4-Nterm biotin peptide): 4530 M⁻¹ s⁻¹; kd [1, 6]: 0.000365 s⁻¹; ka [1, 6]: 6490 M⁻¹ s⁻¹
3 | B3 |  |  | 81 ± 6.8 mg/dL | 67 ± 5.3 mg/dL | 56 ± 7.1 mg/dL | 87 ± 8.7 mg/dL | 101 ± 9.3 mg/dL |  |  |  |  |  |  | reduction in circulating TG compared to isotype-matched control antibody, in words (humanized ANGPTL4 mice; day 1, 10 mg/kg s.c.): significant reduction; reduction in circulating TG compared to isotype-matched control antibody, in words (humanized ANGPTL4 mice; day 4, 10 mg/kg s.c.): significant reduction
